Data published in patent US20220306757A1 (HANGZHOU SUMGEN BIOTECH, published 2022).

T1: BCMA on the surface of human myeloma U266 cells (human, UniProt Q02223 1-184)
T1 sequence (looked up): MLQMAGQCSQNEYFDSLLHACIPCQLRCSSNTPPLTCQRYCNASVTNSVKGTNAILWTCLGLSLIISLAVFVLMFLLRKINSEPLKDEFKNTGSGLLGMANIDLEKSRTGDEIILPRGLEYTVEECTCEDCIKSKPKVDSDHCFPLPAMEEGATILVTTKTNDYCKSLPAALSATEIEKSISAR

T2: BCMA on CHOS cells stably expressing BCMA (CHOS-BCMA) (UniProt Q02223 1-184)
T2 sequence (looked up): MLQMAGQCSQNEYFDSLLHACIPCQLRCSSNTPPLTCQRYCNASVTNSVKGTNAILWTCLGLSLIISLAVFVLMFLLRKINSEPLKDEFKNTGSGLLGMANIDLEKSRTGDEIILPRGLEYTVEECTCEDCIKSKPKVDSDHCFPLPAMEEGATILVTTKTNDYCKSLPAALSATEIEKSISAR

T3: recombinant BCMA-His (ACRO Biosystems) (UniProt Q02223 1-54)
T3 construct: also called target antigen BCMA; antigen BCMA; not shown: His tag
T3 sequence (looked up): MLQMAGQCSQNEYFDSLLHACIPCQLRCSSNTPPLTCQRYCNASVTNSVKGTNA

T4: TROP2 (Sino Biological Inc.) (UniProt P09758 27-274)
T4 construct: Specificity control
T4 sequence (looked up): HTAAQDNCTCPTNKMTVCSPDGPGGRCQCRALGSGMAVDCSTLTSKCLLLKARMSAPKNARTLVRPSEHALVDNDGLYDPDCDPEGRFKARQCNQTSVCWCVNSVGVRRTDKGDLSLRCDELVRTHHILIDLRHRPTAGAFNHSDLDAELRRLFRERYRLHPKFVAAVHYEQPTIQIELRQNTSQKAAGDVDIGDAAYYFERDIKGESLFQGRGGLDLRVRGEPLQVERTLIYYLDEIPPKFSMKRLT

T5: AXL (ACRO Biosystems) (UniProt P30530 33-449, limits assumed)
T5 construct: Specificity control
T5 sequence (looked up): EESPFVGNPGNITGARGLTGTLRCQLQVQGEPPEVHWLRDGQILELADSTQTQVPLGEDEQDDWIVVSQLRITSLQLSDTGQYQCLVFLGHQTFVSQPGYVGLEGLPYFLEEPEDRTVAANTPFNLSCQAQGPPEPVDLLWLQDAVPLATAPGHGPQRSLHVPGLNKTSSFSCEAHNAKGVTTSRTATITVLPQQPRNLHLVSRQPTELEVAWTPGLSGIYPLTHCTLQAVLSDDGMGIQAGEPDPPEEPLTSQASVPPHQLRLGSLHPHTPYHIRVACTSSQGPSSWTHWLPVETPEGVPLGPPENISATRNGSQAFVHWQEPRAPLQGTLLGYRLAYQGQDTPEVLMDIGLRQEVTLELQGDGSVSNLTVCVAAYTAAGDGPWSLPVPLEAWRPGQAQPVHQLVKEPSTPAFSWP

T6: CD38 (Sino Biological Inc.) (UniProt P28907 43-300)
T6 construct: Specificity control
T6 sequence (looked up): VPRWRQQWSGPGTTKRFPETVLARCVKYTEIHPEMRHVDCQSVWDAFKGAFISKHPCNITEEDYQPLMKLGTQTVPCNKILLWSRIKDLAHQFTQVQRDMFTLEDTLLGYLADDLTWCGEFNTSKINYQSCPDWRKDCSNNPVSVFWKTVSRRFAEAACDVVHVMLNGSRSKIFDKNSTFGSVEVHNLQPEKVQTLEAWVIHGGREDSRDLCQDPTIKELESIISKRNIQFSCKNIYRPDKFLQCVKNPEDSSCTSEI

T7: Gas6 (R&D) (UniProt Q14393 49-678, limits assumed)
T7 construct: Specificity control
T7 sequence (looked up): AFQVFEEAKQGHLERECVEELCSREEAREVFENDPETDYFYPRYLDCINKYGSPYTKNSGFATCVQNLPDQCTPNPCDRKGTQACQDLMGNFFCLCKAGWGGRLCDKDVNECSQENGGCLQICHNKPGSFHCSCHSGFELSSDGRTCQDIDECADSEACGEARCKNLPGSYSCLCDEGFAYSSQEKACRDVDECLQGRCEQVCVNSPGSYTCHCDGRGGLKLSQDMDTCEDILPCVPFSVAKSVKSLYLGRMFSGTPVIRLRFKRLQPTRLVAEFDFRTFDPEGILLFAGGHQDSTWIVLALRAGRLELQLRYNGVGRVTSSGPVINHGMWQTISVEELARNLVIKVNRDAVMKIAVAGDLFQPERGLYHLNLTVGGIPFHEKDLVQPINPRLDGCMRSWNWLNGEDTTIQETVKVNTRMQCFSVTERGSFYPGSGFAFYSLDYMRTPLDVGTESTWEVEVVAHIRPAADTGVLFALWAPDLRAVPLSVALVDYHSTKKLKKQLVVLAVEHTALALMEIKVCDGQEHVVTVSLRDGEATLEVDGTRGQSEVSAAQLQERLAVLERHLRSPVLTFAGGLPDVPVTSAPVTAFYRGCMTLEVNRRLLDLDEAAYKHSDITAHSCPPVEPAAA

T8: CD19 (Sino Biological Inc.) (UniProt P15391 20-291)
T8 construct: Specificity control
T8 sequence (looked up): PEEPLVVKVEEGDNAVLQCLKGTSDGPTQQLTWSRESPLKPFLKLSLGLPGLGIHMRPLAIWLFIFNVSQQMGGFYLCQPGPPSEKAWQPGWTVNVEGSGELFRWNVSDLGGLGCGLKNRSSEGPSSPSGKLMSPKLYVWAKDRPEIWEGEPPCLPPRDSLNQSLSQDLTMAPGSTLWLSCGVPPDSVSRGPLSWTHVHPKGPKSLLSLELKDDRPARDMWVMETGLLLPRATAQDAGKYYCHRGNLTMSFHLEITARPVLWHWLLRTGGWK


What was measured:
[1] = molecular target: T1, BCMA on the surface of human myeloma …; assay: cell-based or functional assay
[2] = molecular target: T2, BCMA on CHOS cells stably expressing …; assay: cell-based or functional assay
[3] = molecular target: T1, BCMA on the surface of human myeloma …; assay: flow cytometry on U266 cells, PE anti-human IgG detection
Description: (§1) With human myeloma U266 cells as well as CHOS cells (CHOS-BCMA) stably expressing BCMA constructed by genetic engineering technology as representative cell models, the binding of BCMA on the cell surface to SG1116 was analyzed by flow cytometry. Cells at the logarithmic growth phase were collected, adjusted to a cell density of 5×10⁶ cells/mL, and precooled on ice. The SG1116 antibody was diluted with pre-cooled normal saline containing 2% FBS to 20 μg/ml. 100 μl of cells were taken and added into an equal volume of the above diluted SG1116 antibody, and reacted in dark at 4° C. for 30 min. At the end of the reaction, they were washed twice with pre-cooled normal saline containing 2% FBS (6000 rpm, 45 s). A secondary antibody PE mouse anti-human IgG (BD Pharmingen) was diluted with pre-cooled normal saline containing 2% FBS at a ratio of 1:5. 100 μl of cells were taken and resuspended, and reacted in dark at 4° C. for 30 min. At the end of the reaction, they were washed twice with pre-cooled normal saline containing 2% FBS (6000 rpm, 45 s). The cells were resuspended with 400 μl of 1% (v/v) paraformaldehyde. The binding ability of the antibody to the antigen on the cell surface was analyzed with a flow cytometer (BD Calibur).

[4] = molecular target: T2, BCMA on CHOS cells stably expressing …; assay: flow cytometry on CHOS-BCMA cells, PE anti-human IgG detection
Description: as §1

[5] = molecular target: T3, recombinant BCMA-His (ACRO Biosystems); assay: ELISA, BCMA-His coated at 1 µg/ml, anti-human IgG HRP detection
Description: ELISA strips were coated with the target antigen BCMA-His at 1 μg/ml, overnight at 4° C. After washing with PBST, 10% of fetal calf serum was added for blocking at 37° C. for 1 hour. Different concentrations of the antibody SG1116 was added to react at 37° C. for 1 hour. After washing with PBST, horseradish peroxidase-labeled goat anti-human IgG secondary antibody (Goat anti human ([…]), thermo Fisher Scientific) was added to react at 37° C. for 30 minutes. The plate was washed with PBST repeatedly for 5 times, and patted on absorbent paper so as to dry the remaining droplets as much as possible. Each well was added with […] TMB (eBioscience), placed in dark at room temperature (20±5° C.) for 1.5 min. Each well was added with 100 μl of 2N H₂SO₄ stop solution to terminate the reaction of the substrate. The OD values at 450 nm were read with a Microplate reader. The binding ability of the antibody to the target antigen BCMA was analyzed.

[6] = molecular target: T4, TROP2 (Sino Biological Inc.); assay: ELISA, proteins coated at 1 ug/ml, HRP goat anti-human IgG, OD450
Description: (§2) ELISA strips were coated with milk (Beijing Biomed Biotech Co., Ltd.), BSA (BOVOGEN), CD19 (Sino Biological Inc.), TROP2 (Sino Biological Inc.), BCMA (ACRO Biosystems), CD47 (Sino Biological Inc.), CD38 (Sino Biological Inc.), Gas6 (R&D) and various proteins as well as AXL (ACRO Biosystems), respectively, at 1 μg/ml, overnight at 4° C. After washing with PBST, 10% of fetal calf serum was added for blocking at 37° C. for 1 hour. The antibody SG1116 was added to react at 37° C. for 1 hour. After washing with PBST, horseradish peroxidase-labeled goat anti-human IgG secondary antibody (Goat anti human (HRP), Thermo Fisher Scientific) was added to react at room temperature for 30 minutes. The plate was washed with PBST repeatedly for 5 times, and patted on absorbent paper so as to dry the remaining droplets as much as possible. Each well was added with 100 μl TMB (eBioscience, #85-00-420), placed in dark at room temperature ([…]) for 1.5 min. Each well was added with 100 μl of 2N H₂SO₄ stop solution to terminate the reaction of the substrate. The OD values at 450 nm were read with a Microplate reader. The binding ability of the antibody to protein was analyzed.

AXL (ACRO Biosystems) = molecular target: T5, AXL (ACRO Biosystems); assay: as above
Description: as §2

[7] = molecular target: T9, CD47 (Sino Biological Inc.) (UniProt Q08722 19-139); assay: as above
T9 construct: Specificity control
Description: as §2

[8] = molecular target: T6, CD38 (Sino Biological Inc.); assay: as above
Description: as §2

Gas6 (R&D) = molecular target: T7, Gas6 (R&D); assay: as above
Description: as §2

BSA (BOVOGEN) = molecular target: T10, BSA (BOVOGEN) (UniProt P02769 25-607); assay: as above
T10 construct: Specificity control
Description: as §2

[9] = molecular target: T8, CD19 (Sino Biological Inc.); assay: as above
Description: as §2

[10] = molecular target: T3, recombinant BCMA-His (ACRO Biosystems); assay: SPR (BIACORE), antibody captured by anti-human IgG, BCMA as mobile phase 0.15625-20 nM
Description: The antibody affinity was analyzed with BIACORE biomacromolecular interaction analyzer (GE Co.). Anti-human IgG antibodies (purchased from GE) were coupled on a chip, and utilized to capture the SG1116 antibody, of which the concentration was set as 3 μg/mL, and the sampling time was 120 seconds; with the antigen BCMA as the mobile phase, a gradient of 8 concentrations (0.15625, 0.3125, 0.625, 1.25, 2.5, 5, 10, 20 nM) was used, and the binding time was 120 seconds; the dissociation time was 300 seconds; each antibody was regenerated using 3 M of magnesium chloride (purchased from GE) for a time period of 30 seconds.

T9 sequence (Q08722 19-139 limits assumed): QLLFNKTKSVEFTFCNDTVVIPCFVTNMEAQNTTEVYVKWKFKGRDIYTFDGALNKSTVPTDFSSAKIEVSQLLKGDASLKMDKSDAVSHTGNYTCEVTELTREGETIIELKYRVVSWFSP
T10 sequence (P02769 25-607 limits assumed): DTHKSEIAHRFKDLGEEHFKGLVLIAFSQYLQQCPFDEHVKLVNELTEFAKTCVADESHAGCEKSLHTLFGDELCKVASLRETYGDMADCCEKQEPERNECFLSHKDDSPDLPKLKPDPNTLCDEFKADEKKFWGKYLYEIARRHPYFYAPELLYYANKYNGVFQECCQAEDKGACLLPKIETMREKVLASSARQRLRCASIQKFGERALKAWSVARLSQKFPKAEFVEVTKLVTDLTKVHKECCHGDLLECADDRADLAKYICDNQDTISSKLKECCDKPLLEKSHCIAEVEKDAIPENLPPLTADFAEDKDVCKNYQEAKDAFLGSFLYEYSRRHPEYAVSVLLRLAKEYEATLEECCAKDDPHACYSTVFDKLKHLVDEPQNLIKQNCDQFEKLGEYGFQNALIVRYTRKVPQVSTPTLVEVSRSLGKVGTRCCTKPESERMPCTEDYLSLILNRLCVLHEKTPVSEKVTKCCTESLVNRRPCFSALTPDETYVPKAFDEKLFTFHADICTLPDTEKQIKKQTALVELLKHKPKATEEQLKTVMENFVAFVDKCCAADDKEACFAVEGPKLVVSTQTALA

| internalization efficiency EC50 (flow cytometry, surface MFI at 4°C against 37°C) [1] [µg/mL] | internalization efficiency EC50 (flow cytometry, surface MFI at 4°C against 37°C) [2] [µg/mL] | EC50 [3] [µg/mL] | EC50 [4] [µg/mL] | EC50 [5] [µg/mL] | binding result [6] | binding result (AXL (ACRO Biosystems)) | binding result [7] | binding result [8] | binding result (Gas6 (R&D)) | binding result (BSA (BOVOGEN)) | binding result [9] | Kd [10] [nM] | koff [10] [s⁻¹] | kon [10] [M⁻¹ s⁻¹] | IC50 of inhibition of proliferation (CCK-8, 72 hours) [1] [nM] | Binder |
| --- | --- | --- | --- | --- | --- | --- | --- | --- | --- | --- | --- | --- | --- | --- | --- | --- |
| 0.178 | 0.00327 | 4.29 | 0.622 | 0.0565 | no binding | no binding | no binding | no binding | no binding | no binding | no binding | 1.39 | 0.0171 | 1.23e+07 | – | SG1116 antibody (antibody, human IgG1, V domains shown, also called antibody SG1116; SGT116) VH: QVQLVQSGPELKKPGETVKISCKASGYTFSRYSMNWVRQAPGKGLEWMGRINTGSGAPIYADDFKGRFTFSVDTSASTAYLVINNLKSEDTASYFCSNDYNYSLDHWGQGTAVTVSS VL: DIVLTQSPPSLAMSLGKRATISCRASESVTILGSHLIYWYQQKPGQPPTLLIQLASNVQTGVPARFSGSGSRTDFTLTIDPVEEDDVAVYYCLQSRTIPRTFGGGTKLEIK |
| – | – | – | – | – | – | – | – | – | – | – | – | – | – | – | 0.347 | immunoconjugate SG1116-DM1 (antibody, V domains shown, maytansine derivative DM1 linked through SMCC; conjugation residues and chain not stated) VH: QVQLVQSGPELKKPGETVKISCKASGYTFSRYSMNWVRQAPGKGLEWMGRINTGSGAPIYADDFKGRFTFSVDTSASTAYLVINNLKSEDTASYFCSNDYNYSLDHWGQGTAVTVSS VL: DIVLTQSPPSLAMSLGKRATISCRASESVTILGSHLIYWYQQKPGQPPTLLIQLASNVQTGVPARFSGSGSRTDFTLTIDPVEEDDVAVYYCLQSRTIPRTFGGGTKLEIK |
